Patent US20250145680A1 (REMD BIOTHERAPEUTICS, published 2025)
Where a chain is given by its changes, count along the chain named. Numbers in names are those of the source. One block for each binder: values may come before it.

Target: T1, Type I IFN receptor (IFNAR) (UniProt P17181 28-557; P48551 27-515, limits assumed)
T1 sequence (looked up) 1: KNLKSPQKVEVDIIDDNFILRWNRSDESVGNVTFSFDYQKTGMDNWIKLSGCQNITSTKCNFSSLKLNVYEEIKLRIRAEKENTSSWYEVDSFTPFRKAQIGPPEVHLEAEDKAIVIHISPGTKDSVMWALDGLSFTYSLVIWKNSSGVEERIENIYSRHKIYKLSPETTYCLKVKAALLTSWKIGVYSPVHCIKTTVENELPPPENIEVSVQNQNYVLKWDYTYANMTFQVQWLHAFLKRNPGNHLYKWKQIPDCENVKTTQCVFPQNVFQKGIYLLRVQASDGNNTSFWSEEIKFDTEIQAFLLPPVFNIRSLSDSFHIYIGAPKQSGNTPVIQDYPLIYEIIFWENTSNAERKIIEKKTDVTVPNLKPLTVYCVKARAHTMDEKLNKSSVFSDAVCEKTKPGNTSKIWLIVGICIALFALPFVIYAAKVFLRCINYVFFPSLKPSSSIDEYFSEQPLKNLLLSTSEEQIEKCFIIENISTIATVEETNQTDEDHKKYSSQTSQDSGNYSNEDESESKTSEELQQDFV
T1 sequence (looked up) 2: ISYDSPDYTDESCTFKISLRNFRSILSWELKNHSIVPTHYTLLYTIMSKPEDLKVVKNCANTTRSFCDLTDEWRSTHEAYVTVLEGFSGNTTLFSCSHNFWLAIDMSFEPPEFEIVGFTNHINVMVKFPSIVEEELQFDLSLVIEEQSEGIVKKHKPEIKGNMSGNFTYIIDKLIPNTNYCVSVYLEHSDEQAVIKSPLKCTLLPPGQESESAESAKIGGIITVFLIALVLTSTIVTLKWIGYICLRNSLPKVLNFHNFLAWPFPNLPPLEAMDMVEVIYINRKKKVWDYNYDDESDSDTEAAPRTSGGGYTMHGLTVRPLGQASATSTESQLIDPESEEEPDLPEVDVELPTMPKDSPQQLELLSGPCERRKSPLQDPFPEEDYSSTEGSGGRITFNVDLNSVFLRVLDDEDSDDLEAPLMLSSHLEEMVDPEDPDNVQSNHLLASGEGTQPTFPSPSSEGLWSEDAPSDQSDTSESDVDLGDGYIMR
Test: cell-based or functional assay

- EC50 ratio1 (EC50 of FP/EC50 of IFN-α2b) on PD-L1-negative cells; IFN-α reporter assay (SEAP), PD-L1 blocked with REMD290: 33.9 fold
B1: anti-PD-L1 Ab-con-IFN-α heterodimeric fusion molecule (FP-19), con-IFN-α (R150A), G8 linker (other)
light: DIQMTQSPSSVSASVGDRVTITCKTSQDVNTAVAWYQQKPGQAPRLLIYWASTRHTGVPDRFSGSGSGTDFTLTISSLQAEDVAVYYCQQHYNTPLTFGGGTKLEIKRTVAAPSVFIFPPSDEQLKSGTASVVCLLNNFYPREAKVQWKVDNALQSGNSQESVTEQDSKDSTYSLSSTLTLSKADYEKHKVYACEVTHQGLSSPVTKSFNRGEC
heavy 1: QMQLVQSGAEVKKTGSSVKVSCKASGYTFTSYSINWVRQAPGKGLEWVAYFYVGNGYTDYNEKFKGRVTMTRDTSTSTVYMELSSLRSEDTAVYYCARGGLPYYFDYWGQGTLVTVSSASTKGPSVFPLAPCSRSTSESTAALGCLVKDYFPEPVTVSWNSGALTSGVHTFPAVLQSSGLYSLSSVVTVPSSSLGTKTYTCNVDHKPSNTKVDKRVESKYGPPCPPCPAPEFLGGPSVFLFPPKPKDTLMISRTPEVTCVVVDVSQEDPEVQFNWYVDGVEVHNAKTKPREEQFNSTYRVVSVLTVLHQDWLNGKEYKCKVSNKGLPSSIEKTISKAKGQPREPQVCTLPPSQEEMTKNQVSLSCAVKGFYPSDIAVEWESNGQPENNYKTTPPVLDSDGSFFLVSRLTVDKSRWQEGNVFSCSVMHEALHNHYTQKSLSLSLGGGGGGGGGCDLPQTHSLGNRRALILLAQMRRISPFSCLKDRHDFGFPQEEFDGNQFQKAQAISVLHEMIQQTFNLFSTKDSSAAWDESLLEKFYTELYQQLNDLEACVIQEVGVEETPLMNVDSILAVKKYFQRITLYLTEKKYSPCAWEVVRAEIMASFSLSTNLQERLRRKE
heavy 2: QMQLVQSGAEVKKTGSSVKVSCKASGYTFTSYSINWVRQAPGKGLEWVAYFYVGNGYTDYNEKFKGRVTMTRDTSTSTVYMELSSLRSEDTAVYYCARGGLPYYFDYWGQGTLVTVSSASTKGPSVFPLAPCSRSTSESTAALGCLVKDYFPEPVTVSWNSGALTSGVHTFPAVLQSSGLYSLSSVVTVPSSSLGTKTYTCNVDHKPSNTKVDKRVESKYGPPCPPCPAPEFLGGPSVFLFPPKPKDTLMISRTPEVTCVVVDVSQEDPEVQFNWYVDGVEVHNAKTKPREEQFNSTYRVVSVLTVLHQDWLNGKEYKCKVSNKGLPSSIEKTISKAKGQPREPQVYTLPPCQEEMTKNQVSLWCLVKGFYPSDIAVEWESNGQPENNYKTTPPVLDSDGSFFLYSRLTVDKSRWQEGNVFSCSVMHEALHNHYTQKSLSLSLG

- EC50 ratio1 (EC50 of FP/EC50 of IFN-α2b) on PD-L1-negative cells; IFN-α reporter assay (SEAP), PD-L1 blocked with REMD290: 1140 fold
B2: anti-PD-L1 Ab-con-IFN-α heterodimeric fusion molecule (FP-20), con-IFN-α (A146D and R150A), G8 linker (other)
light: B1 light
heavy 1: B1 heavy 1 with A598D
heavy 2: B1 heavy 2
